We go through 2 variants from IntAct's records for PubMed 10413501.

First the molecules themselves.
B1: Ribonuclease inhibitor (Homo sapiens), P13489 (parent)
chain: MSLDIQSLDIQCEELSDARWAELLPLLQQCQVVRLDDCGLTEARCKDISSALRVNPALAELNLRSNELGDVGVHCVLQGLQTPSCKIQKLSLQNCCLTGAGCGVLSSTLRTLPTLQELHLSDNLLGDAGLQLLCEGLLDPQCRLEKLQLEYCSLSAASCEPLASVLRAKPDFKELTVSNNDINEAGVRVLCQGLKDSPCQLEALKLESCGVTSDNCRDLCGIVASKASLRELALGSNKLGDVGMAELCPGLLHPSSRLRTLWIWECGITAKGCGDLCRVLRAKESLKELSLAGNELGDEGARLLCETLLEPGCQLESLWVKSCSFTAACCSHFSSVLAQNRFLLELQISNNRLEDAGVRELCQGLGQPGSVLRVLWLADCDVSDSSCSSLAATLLANHSLRELDLSNNCLGDAGILQLVESVRQPGCLLEQLVLYDIYWSEEMEDRLQALEKDKPSLRVIS

The variants in one assay derive from B1. To be noted: with rnas1_bovin RNASE1, P61823.
Sequence of rnas1_bovin RNASE1, P61823 (P61823 whole entry): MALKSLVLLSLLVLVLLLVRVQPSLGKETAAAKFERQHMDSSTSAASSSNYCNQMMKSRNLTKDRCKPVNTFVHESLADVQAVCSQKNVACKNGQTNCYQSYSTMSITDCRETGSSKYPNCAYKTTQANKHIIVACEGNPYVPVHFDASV
Take MSLDIQSLDIQCEELSDARWAELLPLLQQCQVVRLDDCGLTEARCKDISSALRVNPALAELNLRSNELGDVGVHCVLQGLQTPSCKIQKLSLQNCCLTGAGCGVLSSTLRTLPTLQELHLSDNLLGDAGLQLLCEGLLDPQCRLEKLQLEYCSLSAASCEPLASVLRAKPDFKELTVSNNDINEAGVRVLCQGLKDSPCQLEALKLESCGVTSDNCRDLCGIVASKASLRELALGSNKLGDVGMAELCPGLLHPSSRLRTLWIWECGITAKGCGDLCRVLRAKESLKELSLAGNELGDEGARLLCETLLEPGCQLESLWVKSCSFTAACCSHFSSVLAQNRFLLELQISNNRLEDAGVRELCQGLGQPGSVLRVLWLADCDVSDSSCSSLAATLLANHSLRELDLSNNCLGDAGILQLVESVRQPGCLLEQLVLYDIFWSEEMEDRLQALEKDKPSLRVIS [Y438F]: the “effect of a mutation on the interaction” value is recorded as “decreasing interaction”.

The variants in the next assay derive from B1. To be noted: with rnas1_bovin RNASE1, P61823. This is another data set of the same source.
In the case of MSLDIQSLDIQCEELSDARWAELLPLLQQCQVVRLDDCGLTEARCKDISSALRVNPALAELNLRSNELGDVGVHCVLQGLQTPSCKIQKLSLQNCCLTGAGCGVLSSTLRTLPTLQELHLSDNLLGDAGLQLLCEGLLDPQCRLEKLQLEYCSLSAASCEPLASVLRAKPDFKELTVSNNDINEAGVRVLCQGLKDSPCQLEALKLESCGVTSDNCRDLCGIVASKASLRELALGSNKLGDVGMAELCPGLLHPSSRLRTLWIWECGITAKGCGDLCRVLRAKESLKELSLAGNELGDEGARLLCETLLEPGCQLESLWVKSCSFTAACCSHFSSVLAQNRFLLELQISNNRLEDAGVRELCQGLGQPGSVLRVLWLADCDVSDSSCSSLAATLLANHSLRELDLSNNCLGDAGILQLVESVRQPGCLLEQLVLFDIYWSEEMEDRLQALEKDKPSLRVIS [Y435F], the “effect of a mutation on the interaction” value is reported as “decreasing interaction”.
